Test results: the supplement of paper PMC12764529
± gives the half width of the 95% confidence interval.

Assays:
[1] = folding stability dG unfold (combined trypsin and chymotrypsin); higher = more stable
Summary of the method: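 Designed mini-proteins (under 80 residues, no cysteine) in a PA-tagged cDNA display construct were digested with trypsin and chymotrypsin. Each protease was used at 11 concentrations (threefold dilutions) plus a no-protease condition, followed by sequencing. K50 was inferred by Bayesian fitting of sequencing counts, and unfolding free energy was derived against a sequence-predicted unfolded-state K50 and a shared folded-state K50, per protease or combined. Only designs with AlphaFold2 dimer inter-PAE above 15 were kept.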

[2] = folding stability dG unfold from chymotrypsin proteolysis; higher = more stable
Method: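 Folding stability of de novo designed mini-proteins (<80 aa, no Cys; designed by TrROS, TrMRF, ProteinMPNN and the joint model) was measured by cDNA display proteolysis with trypsin and chymotrypsin. Each protease was used at 11 concentrations in a threefold dilution series plus a no-protease condition. K50 was inferred by Bayesian fitting of sequencing counts, and dG unfold was derived against a sequence-predicted unfolded-state K50 (Tsuboyama et al. method). Sequences shown include variable-length N-terminal GS-type padding (SAGGSAGG...) inside a display construct carrying a PA tag. Rows were kept only if the AF2 dimer inter-PAE was >15, to exclude likely homo-oligomers.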

Sequence | folding stability dG unfold [1] [kcal/mol] | folding stability dG unfold [2] [kcal/mol]
SAGGEVPVSAEAAAAYDRAVAEGGGGATVPVETPGGRVIVYDPAGTATVLGDDPRTFPLAEVTAFAPSAGGS [r16_664_JUSTAS] | 0.246 ± 0.072 | 0.923 ± 0.059
SAGGSAGGSAGGPELPEDVPVVEVVHLDLPFSPDEPEVVEEAEAKAAALEEGGALAEIRRSAGGSAGGSAGG [r11_519_JUSTAS] | 0.0364 ± 0.097 | 0.728 ± 0.06
SAGGSAGGSAGGSMETVEVTEVSFDPSKGTRFVKTTVTRKDEKGNWVEKEEWITEPVLGSAGGSAGGSAGGS [r4_85_JUSTAS] | -0.0805 ± 0.12 | 0.338 ± 0.059
SAGGSAGGSAGGVYKVEIEIGDAPRTLVVENAAPEEIRAFLEHPEVRRARVEPLSPEELGSAGGSAGGSAGG [r7_502_TrMRF] | -0.152 ± 0.11 | 0.216 ± 0.12
SAGGAPDIPILTASYSPDGVLYSSTTTPINGTLHYFPEDNPVVLATDPATGLTVPVGTLEDVKRLIASAGGS [r8_232_TrMRF] | -0.37 ± 0.19 | 0.208 ± 0.14
SAGGSAGGSAGGSDMEIVPRRIPDGFRLMVARNPEGTYTVQVWNPNGKPKWETIPPDEISAGGSAGGSAGGS [r4_120_TrROS] | -0.485 ± 0.21 | -0.185 ± 0.22
SAGGSAGGSAGGGERRRVLHINPEDGYIQRMEFDPDDGEPTGSETVPFKSPEDALDKLIDSAGGSAGGSAGG [r7_105_TrROS] | -0.152 ± 0.2 | 0.342 ± 0.14
SAGGSAGGSAGGMVKTTTQVSIDPNSDYRYTTTTTTVVDANGKPLATQTTLTVTKLAGTSSAGGSAGGSAGG [r7_616_JUSTAS] | -0.516 ± 0.42 | -0.125 ± 0.34
SAGGGSMYDPETGTLRDENGNFFRTEEKKIPEVVIELPIELPDNTTLVIPVKFRTEEEAEKAVEELLSAGGS [r8_440_JUSTAS] | -0.191 ± 0.33 | 0.0268 ± 0.23
SAGGSAGGSAGGMYSVTLTPVSSPDGELRLRAVYPELGLVRDFDPATGRPVRVVPAALLSAGGSAGGSAGGS [r10_589_JUSTAS] | -0.422 ± 0.26 | 0.411 ± 0.22
SAGGSAGGSAGGTVKELMKKLPFGAQIEIDEIEHDKGRIEIPIRVENMPPEWREKLRKLSAGGSAGGSAGGS [r10_733_TrROS] | -0.305 ± 0.23 | 0.0365 ± 0.15
SSTTPYGDKTVVTTTTPVPGAGKELVTTTTYTFTPDPNSASTSTTATTTTTVTPLPEEAPTPEAVALRRASA [r9_363_JUSTAS] | < -1 | -0.937 ± 0.44
SAGGSAGGSAGGLPINARPPNIAEVIRALRESGRYRVVEIRPFGDGAVIRVEKDGVPLESAGGSAGGSAGGS [r10_695_TrMRF] | 0.0741 ± 0.34 | 0.769 ± 0.19
SAGGSAGGSAGGMKIRVTHPTNKTEEIIPVSELKKIPGPYTIEPLGPDPELAEKIKKLLSAGGSAGGSAGGS [r10_419_JUSTAS] | 0.142 ± 0.25 | 0.553 ± 0.22
SAGKTIYIQGPLDELRKLPEIKEVEKTGNHWTLELPNVPIHIEIEPPPPVPVVPPEMPKEQMKEYMKKMSAG [r5_2_TrROS] | 0.316 ± 0.37 | 0.646 ± 0.32
SAGGSAMPSPITVTTFPGGTARLVEFPDGSTAVVEIVEEGPERVLVTTTTPPDGVPTTSVVPAAELSAGGSA [r15_941_JUSTAS] | -0.537 ± 0.21 | -0.0657 ± 0.072
SAGVEPTPDGKWRIEINPEEGHIRVRMKNGEPHEIPFPEGSLDDFADEIAEKMGFPPDKPFKIDEIEIWSAG [r5_923_TrROS] | -0.273 ± 0.19 | -0.0363 ± 0.21
SAGGSAGGSAGGGPMLRYTLTFTLPDSTVTKEFSSEEEVEEAKEQLPEEYPVDPNVTVSPSAGGSAGGSAGG [r7_18_JUSTAS] | -0.22 ± 0.32 | -0.113 ± 0.43
SAGGSAGGSAGGGPNIRTVTETTVEPTPDSVVTTRPVYYVDPSGTVLGSETTTTVDPNTTSAGGSAGGSAGG [r7_812_JUSTAS] | -0.26 ± 0.13 | 0.179 ± 0.034
SAGGSAGGSAGPKSIPLDNATVTEFDSPNGDKVFIFSHPNKKKRLAILKDGKLVKEIPIESAGGSAGGSAGG [r11_1038_TrMRF] | -0.26 ± 0.3 | 0.0908 ± 0.31
SAGGDARVARARIRLTRPFPDEDGVVRWEPVVPPGDPVEVGLVLEDDTLVANAVFDGRPVLATVRLESAGGS [r16_500_TrMRF] | < -1 | -0.407 ± 0.27
SAGGSAGGSIPPGEEVPLRIKIWNPDNGKPRNEIPITMWVGDAEEIAEEFASTFPGYRVEIDPSAGGSAGGS [r12_21_TrROS] | 0.102 ± 0.33 | 0.717 ± 0.23
SAGGKPKITITIEKLPDGTIRITITYEDGSKVEIEAKVTYDPKTNTLTIEVTIKINGKTYKITITFKSAGGS [r16_391_TrROS_Hall] | 4.35 ± 0.68 | 4.4 ± 0.29
SAGGSAPVIVKEASLEEIKELKKKGVKKIILVEKNPEIAEKIKKEFEKEDDIPIETVSEEEAKKLKSAGGSA [r15_243_TrMRF] | -0.718 ± 0.28 | -0.294 ± 0.13

Sequence | folding stability dG unfold [1] [kcal/mol] | folding stability dG unfold [2] [kcal/mol]
SAGGSAGGSAGGRIRLPGWEIEDVKVYETGDKPYYTITYKNPNGKPKKMLMPADDLDDFSAGGSAGGSAGGS [r10_645_TrROS] | -0.618 ± 0.52 | -0.216 ± 0.61
SAGGSPPYVNISMRRTPNGNMPLKVEIYDKDNEPVAEQEIEIPDMEPGEQWNFTIPIEPNMKLRIESAGGSA [r2_288_TrROS] | -0.132 ± 0.12 | 0.456 ± 0.13
SAKVHIPFPPGMPPKQMRNMVKNALREQQNNGKEPDKITIHMPPDQRPIKDWLKEAGLPPDNVKWEPWPSAG [r14_589_TrROS] | < -1 | -0.422 ± 0.55
SAGGSAMKTSLSRSTSTDPSDPNVTYKTTTTFLPDNTVLTNTTTTTRVGSSDVTTTTTTTTPIPAASAGGSA [r15_553_JUSTAS] | 0.135 ± 0.18 | 0.409 ± 0.18
SAGGSAGGSAGGVAEWIQEQGFKVKDIPVPRPPNGNPWVKVEVEHDGGKRTYEIPLDEISAGGSAGGSAGGS [r10_35_TrROS] | 0.0288 ± 0.14 | 0.487 ± 0.12
SAGGSAGGSAGMKYIEEAKAKAKPDKKLKITIPPSLPVEEVRKELLEEVPIDDVEFIKNLSAGGSAGGSAGG [r11_524_JUSTAS] | < -1 | -0.491 ± 0.26
SAGGSAGGSAGGSGPPLRTEERVEEVTLPNGERLLVETTTLTDPVTGETTVSRSIRLPLSAGGSAGGSAGGS [r4_445_JUSTAS] | -0.38 ± 0.19 | 0.53 ± 0.1
SAGGSVVTGVDEEELRAVAEALRAAGHTLADVRIERYPEDGTYRMTVTLVDPATAAPLADVLMVAKASAGGS [r16_750_JUSTAS] | 0.312 ± 0.15 | 0.887 ± 0.13
SAGGSAMFTSSTSTDPATGLRRTTTLFPDSSAAVTTTVAVPPVPPLSPEAVAAGEAAAAAGRPPAVSAGGSA [r15_631_JUSTAS] | < -1 | 0.59 ± 0.17
SMKTYTFTDPNNGIKYTITIDPNKPLVNVTVTKPGGEPVETQTVSVAPGKINLSLNVDGKPISISISLPESA [r9_385_JUSTAS] | 5.37 ± 0.2 | 5.29 ± 0.15
SAGGSAVGYYVETEIEKVEEKTYTFKPDGSPLKYFKNVKKNIKVKKVYVVKPTPDNSVIVDPNIPLSAGGSA [r15_162_JUSTAS] | < -1 | -0.618 ± 0.46
SAGGSAGGSAMGPPVRRVTITLSDGTRYEVDVAPDDSVAAVRAPLAAHPDVAAVTELTVEPSAGGSAGGSAG [r3_308_JUSTAS] | 0.282 ± 0.084 | 0.99 ± 0.044
SAGGKSKTIPIQPGDIRKVRDQLKELPDEGDNVRIHNPDNGKEREMDPDQLDDNVEKNGEPPTIHVRSAGGS [r16_263_TrROS] | < -1 | -0.528 ± 0.072
SAGGSAGGMKTKTYTIPLSQVSSIDPSGTVSEEEVKALGLPPNFKATVVPLPGSEEAVEVTVPESAGGSAGG [r6_553_JUSTAS] | -0.381 ± 0.18 | 0.115 ± 0.11
SAGGSAGGSAGVKIRMRGPNGSESKIPVPPDAIQDKFPPGDPIRIPIHRHNNNFHMDIEPVSAGGSAGGSAG [r3_86_TrROS] | -0.0674 ± 0.086 | 0.353 ± 0.043
SGMTPVSVSRKFTSTFPNGTPVSDPGGLVVLVPEPPPPPYVHLSPEEVEAARAAAAAAGSPLTEADIRASSA [r9_487_JUSTAS] | -0.642 ± 0.42 | 0.164 ± 0.21
SSAEEIARRLAEELNLDRVEVRVERLRLEPAEAPEEVRVVRPAPPPPPVTEEERRRRPEERRRRLSEEELSA [r9_724_TrROS_Hall] | < -1 | -0.262 ± 0.32
SMSIKRARLRPEEIEAEIAALEAQGLRVKREPLEVTPVEVPLKLPDGTPRRVEVVEVVFRLELTPLDQPPSA [r9_991_JUSTAS] | < -1 | -0.433 ± 0.48
SAGGSAGGSAGMLNTTVTVSIPTPEGKVETITIPPGVPLEEAKAKVAEPRPGAEITEIVRVSAGGSAGGSAG [r3_60_JUSTAS] | 0.165 ± 0.21 | 0.764 ± 0.044
SAGGSAGGSAGGDVLLFVDESTGLADARALAEALGLKDVVIVPVPPAKPVVLNADGSPTSAGGSAGGSAGGS [r10_1083_TrMRF] | -0.0616 ± 0.1 | 0.63 ± 0.052
SAGGGSKVIKVEYEKKDGGKVFIDDITDPGDSVEASIFNPKTGVKIPLPFDKLEELEDFIKEFVDKYSAGGS [r16_736_TrMRF] | < -1 | -0.154 ± 0.32
SAGMKVVRTRTVWADDSDNPTPLAPEVELVRDAPPTFPLPVTVTTPDGRPYTGTLIALDPDREGLVLGGSAG [r5_735_TrMRF] | -0.29 ± 0.19 | 0.254 ± 0.17
SAGGSAGGMIRTYELPETGEVRVLIRTPNPEEAEALAAEVRAELAAAGLDVPVEISPGPASALDSAGGSAGG [r6_641_JUSTAS] | 0.283 ± 0.18 | 0.703 ± 0.2
